Reference: article PMC7379967 (The Febs Journal, 2018)

Key:
cdMMP‐3 [1] = molecular target: T1, cdMMP‐3 (Homo sapiens, UniProt P08254); test: Gelatin‐Sepharose bound serum proMMP‐9 activation by cdMMP‐3, zymography; format: biochemical; conditions: 5 μl serum, 0-14.2 nM cdMMP‐3, 3 h, 37 °C, CDG patients n = 5, healthy controls n = 7, Fig. 8
cdMMP‐3 [2] = molecular target: T1, cdMMP‐3; test: Stepwise activation of proMMP‐9 glycoforms by cdMMP‐3, gelatin zymography; format: biochemical; conditions: with galectin‐3 (1/10), Fig. 9B

T1 sequence (P08254 100-272 limits assumed): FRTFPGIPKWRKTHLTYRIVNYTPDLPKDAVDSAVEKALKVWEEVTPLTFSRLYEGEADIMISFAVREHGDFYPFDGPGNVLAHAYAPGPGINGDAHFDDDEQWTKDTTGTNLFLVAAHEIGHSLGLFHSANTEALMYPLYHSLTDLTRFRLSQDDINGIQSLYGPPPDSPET

Row | activation of serum proMMP‐9 by MMP‐3 (cdMMP‐3 [1]) | Molecule | conversion into active form on overnight incubation with cdMMP‐3 and galectin‐3 (cdMMP‐3 [2])
1 | significantly faster activation | proMMP‐9 from CDG patients: serum proMMP‐9 of PMM2‐CDG patients, defective N‐glycosylation (protein, UniProt P14780 20-707, looked up, pro-form) pro-form: APRQRQSTLVLFPGDLRTNLTDRQLAEEYLYRYGYTRVAEMRGESKSLGPALLLLQKQLSLPETGELDSATLKAMRTPRCGVPDLGRFQTFEGDLKWHHHNITYWIQNYSEDLPRAVIDDAFARAFALWSAVTPLTFTRVYSRDADIVIQFGVAEHGDGYPFDGKDGLLAHAFPPGPGIQGDAHFDDDELWSLGKGVVVPTRFGNADGAACHFPFIFEGRSYSACTTDGRSDGLPWCSTTANYDTDDRFGFCPSERLYTQDGNADGKPCQFPFIFQGQSYSACTTDGRSDGYRWCATTANYDRDKLFGFCPTRADSTVMGGNSAGELCVFPFTFLGKEYSTCTSEGRGDGRLWCATTSNFDSDKKWGFCPDQGYSLFLVAAHEFGHALGLDHSSVPEALMYPMYRFTEGPPLHKDDVNGIRHLYGPRPEPEPRPPTTTTPQPTAPPTVCPTGPPTVHPSERPTAGPTGPPSAGPTGPPTAGPSTATTVPLSPVDDACNVNIFDAIAEIGNQLYLFKDGKYWRFSEGRGSRPQGPFLIADKWPALPRKLDSVFEERLSKKLFFFSGRQVWVYTGASVLGPRRLDKLGLGADVAQVTGALRSGRGKMLLFSGRRLWRFDVKAQMVDPRSASEVDRMFPGVPLDTHDVFQYREKAYFCQDRFYWRVSSRSELNQVDQVGYVTYDILQCPED | 
2 |  | recombinant proMMP‐9: recombinant full‐length human proMMP‐9 expressed in Sf‐9 insect cells (protein, UniProt P14780 20-707, looked up, pro-form) pro-form: APRQRQSTLVLFPGDLRTNLTDRQLAEEYLYRYGYTRVAEMRGESKSLGPALLLLQKQLSLPETGELDSATLKAMRTPRCGVPDLGRFQTFEGDLKWHHHNITYWIQNYSEDLPRAVIDDAFARAFALWSAVTPLTFTRVYSRDADIVIQFGVAEHGDGYPFDGKDGLLAHAFPPGPGIQGDAHFDDDELWSLGKGVVVPTRFGNADGAACHFPFIFEGRSYSACTTDGRSDGLPWCSTTANYDTDDRFGFCPSERLYTQDGNADGKPCQFPFIFQGQSYSACTTDGRSDGYRWCATTANYDRDKLFGFCPTRADSTVMGGNSAGELCVFPFTFLGKEYSTCTSEGRGDGRLWCATTSNFDSDKKWGFCPDQGYSLFLVAAHEFGHALGLDHSSVPEALMYPMYRFTEGPPLHKDDVNGIRHLYGPRPEPEPRPPTTTTPQPTAPPTVCPTGPPTVHPSERPTAGPTGPPSAGPTGPPTAGPSTATTVPLSPVDDACNVNIFDAIAEIGNQLYLFKDGKYWRFSEGRGSRPQGPFLIADKWPALPRKLDSVFEERLSKKLFFFSGRQVWVYTGASVLGPRRLDKLGLGADVAQVTGALRSGRGKMLLFSGRRLWRFDVKAQMVDPRSASEVDRMFPGVPLDTHDVFQYREKAYFCQDRFYWRVSSRSELNQVDQVGYVTYDILQCPED | fully converted into its active form
